In the supplement of paper PMC9112550, “Optimization of the antimicrobial peptide Bac7 by deep mutational scanning” (BMC Biology, 2022):

Test system: Escherichia coli TOP10
Experiment: shrunken log2 fold change of peptide-encoding DNA abundance (4.5 h post-induction vs induction); higher = less antimicrobial activity (less host growth inhibition)
Conditions: time post-induction: 4.5 h; library: site-saturation at positions 5, 18, 19, 20
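Note: peptides expressed intracellularly from a pBAD plasmid library in pooled LB shake-flask culture, induced with 0.3% L-arabinose, DNA abundance read by NGS, three biological replicates, DESeq2 with apeglm shrinkage.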

Row | Sequence | shrunken log2 fold change
1 | RRIRDRPPRLPRPRPRPYCRPRP | 0.0533
2 | RRIRVRPPRLPRPRPRPITYPRP | -0.911
3 | RRIRCRPPRLPRPRPRPTWRPRP | 1.4
4 | RRIRERPPRLPRPRPRPAWVPRP | 0.174
5 | RRIRVRPPRLPRPRPRPWVNPRP | 0.0119
6 | RRIRGRPPRLPRPRPRPVMMPRP | 0.0154
7 | RRIRSRPPRLPRPRPRPNWSPRP | -0.249
8 | RRIRCRPPRLPRPRPRPPGYPRP | 0.422
9 | RRIRRRPPRLPRPRPRPKLVPRP | 0.485
10 | RRIRWRPPRLPRPRPRPEGNPRP | 0.29
11 | RRIRSRPPRLPRPRPRPFVWPRP | -0.0361
12 | RRIRRRPPRLPRPRPRPEQVPRP | -0.0118
13 | RRIRDRPPRLPRPRPRPEPPPRP | 1.06
14 | RRIRYRPPRLPRPRPRPQYIPRP | 0.0111
15 | RRIRHRPPRLPRPRPRPYGNPRP | -0.298
16 | RRIRQRPPRLPRPRPRPNRAPRP | 0.025
17 | RRIRDRPPRLPRPRPRPWPYPRP | -0.0943
18 | RRIRIRPPRLPRPRPRPEAWPRP | 0.033
19 | RRIRFRPPRLPRPRPRPEGPPRP | 0.0494
20 | RRIRDRPPRLPRPRPRPSTLPRP | -0.267
21 | RRIRIRPPRLPRPRPRPLEYPRP | -0.293
22 | RRIRTRPPRLPRPRPRPPEEPRP | -0.00968
23 | RRIRPRPPRLPRPRPRPCWYPRP | -0.408
24 | RRIRFRPPRLPRPRPRPHYGPRP | 0.0398
25 | RRIRERPPRLPRPRPRPHFCPRP | -0.117

Row | Sequence | shrunken log2 fold change
26 | RRIRMRPPRLPRPRPRPQPNPRP | 0.546
27 | RRIRPRPPRLPRPRPRPATHPRP | 0.0822
28 | RRIRMRPPRLPRPRPRPAIMPRP | 0.284
29 | RRIRSRPPRLPRPRPRPSTLPRP | 0.658
30 | RRIRFRPPRLPRPRPRPSEYPRP | -0.288
31 | RRIRFRPPRLPRPRPRPSCVPRP | -0.443
32 | RRIRNRPPRLPRPRPRPFLHPRP | -0.351
33 | RRIRHRPPRLPRPRPRPKWPPRP | 0.0116
34 | RRIRIRPPRLPRPRPRPMKVPRP | -0.00968
35 | RRIRERPPRLPRPRPRPRRMPRP | 0.119
36 | RRIRTRPPRLPRPRPRPLLVPRP | -0.119
37 | RRIRYRPPRLPRPRPRPTSSPRP | -0.0743
38 | RRIRPRPPRLPRPRPRPLAHPRP | 0.183
39 | RRIRDRPPRLPRPRPRPTYHPRP | -0.0146
40 | RRIRCRPPRLPRPRPRPSHTPRP | -0.283
41 | RRIRMRPPRLPRPRPRPFSKPRP | -0.284
42 | RRIRQRPPRLPRPRPRPYIEPRP | -0.45
43 | RRIRPRPPRLPRPRPRPMREPRP | 1.07
44 | RRIRTRPPRLPRPRPRPSDCPRP | 0.131
45 | RRIRTRPPRLPRPRPRPKGMPRP | 0.138
46 | RRIRIRPPRLPRPRPRPLMIPRP | -0.807
47 | RRIRFRPPRLPRPRPRPIFLPRP | -0.196
48 | RRIRQRPPRLPRPRPRPRNLPRP | 0.242
49 | RRIRDRPPRLPRPRPRPLAHPRP | 0.151
50 | RRIRHRPPRLPRPRPRPLHCPRP | -0.519

Row | Sequence | shrunken log2 fold change
51 | RRIRERPPRLPRPRPRPVMPPRP | -0.259
52 | RRIRIRPPRLPRPRPRPYAFPRP | -1.1
53 | RRIRLRPPRLPRPRPRPKFMPRP | 0.149
54 | RRIRGRPPRLPRPRPRPIHDPRP | -0.126
55 | RRIRERPPRLPRPRPRPSCDPRP | -0.281
56 | RRIRMRPPRLPRPRPRPYFLPRP | -0.542
57 | RRIRFRPPRLPRPRPRPNCTPRP | 0.0099
58 | RRIRLRPPRLPRPRPRPWGPPRP | -0.24
59 | RRIRQRPPRLPRPRPRPIYEPRP | -0.0255
60 | RRIRARPPRLPRPRPRPITIPRP | 0.222
61 | RRIRDRPPRLPRPRPRPCWSPRP | -0.00281
62 | RRIRVRPPRLPRPRPRPPVTPRP | -0.0902
63 | RRIRRRPPRLPRPRPRPANSPRP | 0.0678
64 | RRIRPRPPRLPRPRPRPWEMPRP | -0.157
65 | RRIRSRPPRLPRPRPRPEYVPRP | 0.0646
66 | RRIRNRPPRLPRPRPRPHLWPRP | 0.0922
67 | RRIRDRPPRLPRPRPRPRATPRP | 0.614
68 | RRIRRRPPRLPRPRPRPDCRPRP | 0.0322
69 | RRIRERPPRLPRPRPRPVPQPRP | -0.195
70 | RRIRWRPPRLPRPRPRPVAEPRP | 1.41
71 | RRIRLRPPRLPRPRPRPAHFPRP | -0.197
72 | RRIRLRPPRLPRPRPRPHKCPRP | -0.0456
73 | RRIRLRPPRLPRPRPRPSPTPRP | 1.06
74 | RRIRERPPRLPRPRPRPNCMPRP | -0.526
75 | RRIRNRPPRLPRPRPRPGGSPRP | 0.407
